B1: TMF1 (protein, UniProt P82094 1-1093, looked up)
TATA element modulatory factor: MSWFNASQLSSFAKQALSQAQKSIDRVLDIQEEEPSIWAETIPYGEPGISSPVSGGWDTSTWGLKSNTEPQSPPIASPKAITKPVRRTVVDESENFFSAFLSPTDVQTIQKSPVVSKPPAKSQRPEEEVKSSLHESLHIGQSRTPETTESQVKDSSLCVSGETLAAGTSSPKTEGKHEETVNKESDMKVPTVSLKVSESVIDVKTTMESISNTSTQSLTAETKDIALEPKEQKHEDRQSNTPSPPVSTFSSGTSTTSDIEVLDHESVISESSASSRQETTDSKSSLHLMQTSFQLLSASACPEYNRLDDFQKLTESCCSSDAFERIDSFSVQSLDSRSVSEINSDDELSGKGYALVPIIVNSSTPKSKTVESAEGKSEEVNETLVIPTEEAEMEESGRSATPVNCEQPDILVSSTPINEGQTVLDKVAEQCEPAESQPEALSEKEDVCKTVEFLNEKLEKREAQLLSLSKEKALLEEAFDNLKDEMFRVKEESSSISSLKDEFTQRIAEAEKKVQLACKERDAAKKEIKNIKEELATRLNSSETADLLKEKDEQIRGLMEEGEKLSKQQLHNSNIIKKLRAKDKENENMVAKLNKKVKELEEELQHLKQVLDGKEEVEKQHRENIKKLNSMVERQEKDLGRLQVDMDELEEKNRSIQAALDSAYKELTDLHKANAAKDSEAQEAALSREMKAKEELSAALEKAQEEARQQQETLAIQVGDLRLALQRTEQAAARKEDYLRHEIGELQQRLQEAENRNQELSQSVSSTTRPLLRQIENLQATLGSQTSSWEKLEKNLSDRLGESQTLLAAAVERERAATEELLANKIQMSSMESQNSLLRQENSRFQAQLESEKNRLCKLEDENNRYQVELENLKDEYVRTLEETRKEKTLLNSQLEMERMKVEQERKKAIFTQETIKEKERKPFSVSSTPTMSRSSSISGVDMAGLQTSFLSQDESHDHSFGPMPISANGSNLYDAVRMGAGSSIIENLQSQLKLREGEITHLQLEIGNLEKTRSIMAEELVKLTNQNDELEEKVKEIPKLRTQLRDLDQRYNTILQMYGEKAEEAEELRLDLEDVKNMYKTQIDELLRQSLS
B2: EFEMP1 (protein, UniProt Q12805 18-493, looked up)
EGF-containing fibulin-like …: QDTEETITYTQCTDGYEWDPVRQQCKDIDECDIVPDACKGGMKCVNHYGGYLCLPKTAQIIVNNEQPQQETQPAEGTSGATTGVVAASSMATSGVLPGGGFVASAAAVAGPEMQTGRNNFVIRRNPADPQRIPSNPSHRIQCAAGYEQSEHNVCQDIDECTAGTHNCRADQVCINLRGSFACQCPPGYQKRGEQCVDIDECTIPPYCHQRCVNTPGSFYCQCSPGFQLAANNYTCVDINECDASNQCAQQCYNILGSFICQCNQGYELSSDRLNCEDIDECRTSSYLCQYQCVNEPGKFSCMCPQGYQVVRSRTCQDINECETTNECREDEMCWNYHGGFRCYPRNPCQDPYILTPENRCVCPVSNAMCRELPQSIVYKYMSIRSDRSVPSDIFQIQATTIYANTINTFRIKSGNENGEFYLRQTSPVSAMLVLVKSLSGPREHIVDLEMLTVSSIGTFRTSSVLRLTIIVGPFSF
B3: EIF4ENIF1 (protein, UniProt Q9NRA8 1-985, looked up)
Eukaryotic translation …: MDRRSMGETESGDAFLDLKKPPASKCPHRYTKEELLDIKELPHSKQRPSCLSEKYDSDGVWDPEKWHASLYPASGRSSPVESLKKELDTDRPSLVRRIVDPRERVKEDDLDVVLSPQRRSFGGGCHVTAAVSSRRSGSPLEKDSDGLRLLGGRRIGSGRIISARTFEKDHRLSDKDLRDLRDRDRERDFKDKRFRREFGDSKRVFGERRRNDSYTEEEPEWFSAGPTSQSETIELTGFDDKILEEDHKGRKRTRRRTASVKEGIVECNGGVAEEDEVEVILAQEPAADQEVPRDAVLPEQSPGDFDFNEFFNLDKVPCLASMIEDVLGEGSVSASRFSRWFSNPSRSGSRSSSLGSTPHEELERLAGLEQAILSPGQNSGNYFAPIPLEDHAENKVDILEMLQKAKVDLKPLLSSLSANKEKLKESSHSGVVLSVEEVEAGLKGLKVDQQVKNSTPFMAEHLEETLSAVTNNRQLKKDGDMTAFNKLVSTMKASGTLPSQPKVSRNLESHLMSPAEIPGQPVPKNILQELLGQPVQRPASSNLLSGLMGSLEPTTSLLGQRAPSPPLSQVFQTRAASADYLRPRIPSPIGFTPGPQQLLGDPFQGMRKPMSPITAQMSQLELQQAALEGLALPHDLAVQAANFYQPGFGKPQVDRTRDGFRNRQQRVTKSPAPVHRGNSSSPAPAASITSMLSPSFTPTSVIRKMYESKEKSKEEPASGKAALGDSKEDTQKASEENLLSSSSVPSADRDSSPTTNSKLSALQRSSCSTPLSQANRYTKEQDYRPKATGRKTPTLASPVPTTPFLRPVHQVPLVPHVPMVRPAHQLHPGLVQRMLAQGVHPQHLPSLLQTGVLPPGMDLSHLQGISGPILGQPFYPLPAASHPLLNPRPGTPLHLAMVQQQLQRSVLHPPGSGSHAAAVSVQTTPQNVPSRSGLPHMHSQLEHRPSQRSSSPVGLAKWFGSDVLQQPLPSMPAKVISVDELEYRQ
B4: FRS3 (protein, UniProt O43559 2-492, looked up)
Fibroblast growth factor …: GSCCSCLNRDSVPDNHPTKFKVTNVDDEGVELGSGVMELTQSELVLHLHRREAVRWPYLCLRRYGYDSNLFSFESGRRCQTGQGIFAFKCSRAEEIFNLLQDLMQCNSINVMEEPVIITRNSHPAELDLPRAPQPPNALGYTVSSFSNGCPGEGPRFSAPRRLSTSSLRHPSLGEESTHALIAPDEQSHTYVNTPASEDDHRRGRHCLQPLPEGQAPFLPQARGPDQRDPQVFLQPGQVKFVLGPTPARRHMVKCQGLCPSLHDPPHHNNNNEAPSECPAQPKCTYENVTGGLWRGAGWRLSPEEPGWNGLAHRRAALLHYENLPPLPPVWESQAQQLGGEAGDDGDSRDGLTPSSNGFPDGEEDETPLQKPTSTRAAIRSHGSFPVPLTRRRGSPRVFNFDFRRPGPEPPRQLNYIQVELKGWGGDRPKGPQNPSSPQAPMPTTHPARSSDSYAVIDLKKTVAMSNLQRALPRDDGTARKTRHNSTDLPL
B5: RAI14 (protein, UniProt Q9P0K7 1-980, looked up)
Ankycorbin: MKSLKAKFRKSDTNEWNKNDDRLLQAVENGDAEKVASLLGKKGASATKHDSEGKTAFHLAAAKGHVECLRVMITHGVDVTAQDTTGHSALHLAAKNSHHECIRKLLQSKCPAESVDSSGKTALHYAAAQGCLQAVQILCEHKSPINLKDLDGNIPLLLAVQNGHSEICHFLLDHGADVNSRNKSGRTALMLACEIGSSNAVEALIKKGADLNLVDSLGYNALHYSKLSENAGIQSLLLSKISQDADLKTPTKPKQHDQVSKISSERSGTPKKRKAPPPPISPTQLSDVSSPRSITSTPLSGKESVFFAEPPFKAEISSIRENKDRLSDSTTGADSLLDISSEADQQDLLSLLQAKVASLTLHNKELQDKLQAKSPKEAEADLSFDSYHSTQTDLGPSLGKPGETSPPDSKSSPSVLIHSLGKSTTDNDVRIQQLQEILQDLQKRLESSEAERKQLQVELQSRRAELVCLNNTEISENSSDLSQKLKETQSKYEEAMKEVLSVQKQMKLGLVSPESMDNYSHFHELRVTEEEINVLKQDLQNALEESERNKEKVRELEEKLVEREKGTVIKPPVEEYEEMKSSYCSVIENMNKEKAFLFEKYQEAQEEIMKLKDTLKSQMTQEASDEAEDMKEAMNRMIDELNKQVSELSQLYKEAQAELEDYRKRKSLEDVTAEYIHKAEHEKLMQLTNVSRAKAEDALSEMKSQYSKVLNELTQLKQLVDAQKENSVSITEHLQVITTLRTAAKEMEEKISNLKEHLASKEVEVAKLEKQLLEEKAAMTDAMVPRSSYEKLQSSLESEVSVLASKLKESVKEKEKVHSEVVQIRSEVSQVKREKENIQTLLKSKEQEVNELLQKFQQAQEELAEMKRYAESSSKLEEDKDKKINEMSKEVTKLKEALNSLSQLSYSTSSSKRQSQQLEALQQQVKQLQNQLAECKKQHQEVISVYRMHLLYAVQGQMDEDVQKVLKQILTMCKNQSQKK

T2 sequence (Q9WMX2 1027-1657): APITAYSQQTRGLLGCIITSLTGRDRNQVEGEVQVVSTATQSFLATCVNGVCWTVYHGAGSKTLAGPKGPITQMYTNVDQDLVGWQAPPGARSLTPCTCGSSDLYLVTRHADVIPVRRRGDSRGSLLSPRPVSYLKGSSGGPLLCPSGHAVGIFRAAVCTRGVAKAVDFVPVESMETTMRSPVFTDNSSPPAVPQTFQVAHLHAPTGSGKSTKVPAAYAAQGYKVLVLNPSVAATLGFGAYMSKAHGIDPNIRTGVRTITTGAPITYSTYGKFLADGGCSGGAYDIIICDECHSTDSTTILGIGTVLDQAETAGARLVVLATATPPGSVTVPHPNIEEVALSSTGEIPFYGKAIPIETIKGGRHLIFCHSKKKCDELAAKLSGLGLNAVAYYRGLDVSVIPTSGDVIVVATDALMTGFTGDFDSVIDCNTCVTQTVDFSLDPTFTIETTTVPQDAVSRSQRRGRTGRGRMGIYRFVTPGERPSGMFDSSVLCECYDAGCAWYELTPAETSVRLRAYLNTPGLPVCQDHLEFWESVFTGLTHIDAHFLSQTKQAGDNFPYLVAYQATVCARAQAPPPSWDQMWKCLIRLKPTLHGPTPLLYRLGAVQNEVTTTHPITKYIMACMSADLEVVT

The first test has as its target T1, GST-tagged viral proteins (Hepatitis C virus genotype 1b, UniProt Q9WMX2).
T1 construct: expressed in transfected cells; host or cells: HEK-293T
Kind of test: Validation by co-affinity purification (CoAP). In kind it is binding, HCV genotype 1b, isolate con1. On the set-up: key: +: IMAP validation; −: not validated; NA: non assayable due to default of protein expression or to cellular protein directly interacting with GST. As to conditions: interaction with HCV protein NS5A. The source says:
C. Validation of Y2H interactions by co-affinity purification assay. Nine co-AP positive assays are shown, representing: NS5A-SORBS2 (1), NS3-CALCOCO2 (2), NS5A-BIN1 (3), NS5A-MOBK1B (4), NS5A-EFEMP1 (5), NS3-PSMB9 and NS5A-PSMB9 (6), NS5A-PPPIRI3L (7), NS3-RASAL2 (8). After pull-down with GST tagged viral baits (+) or with negative control GST alone (−), cellular preys are identified with anti-Flag antibody. Anti-GST antibody identifies either GST alone or GST-tagged viral baits. Expression of cellular preys in cell lysate is controlled by anti-Flag (bottom panel). […]
A random pool of 59 IMAP Y2H interactions was chosen for CoAP assays. Cellular ORFs (interacting domains found in Y2H screens) were cloned by recombinational cloning from a pool of human cDNA library or the MGC cDNA plasmids using KOD polymerase (Toyobo) into pDONR207 (Invitrogen). After validation by sequencing, these ORFs were transferred to pCi-neo-3xFLAG gateway-converted, and HCV ORFs were transferred into pDEST27 (GST fusion in N-term). HEK-293T cells were then co-transfected (JetPei, Polyplus) by each pair of plasmid encoding interacting proteins. Controls are GST alone against 3xFLAG-tagged preys. Two days after transfection, cells were harvested and lysed (0.5% NP-40, 20 mM Tris-HCl (pH 8.0), 180 mM NaCl, 1 mM EDTA, and complete protease inhibitor cocktail). Cell lysates were cleared by centrifugation for 20 min at 13,000 rpm at 4° C. and soluble protein complexes were purified using Glutathione Sepharose 4B beads (GE Healthcare). Beads were then washed extensively four times with lysis buffer and proteins were separated on SDS-PAGE and transferred to nitrocellulose membrane. GST-tagged viral proteins and 3xFLAG-tagged cellular proteins were detected using standard immunoblotting techniques using anti-GST (Covance) and anti-FLAG M2 (Sigma) monoclonal antibodies (21).
Turning to B1, the CoAP result is recorded as “−”.
Regarding B2, the CoAP entry is listed as “+”.

Staying with this test, now noted: validation of interaction with HCV protein NS3.
With B3, the CoAP entry is listed as “+”.
For B4, the CoAP entry was “+”.
Same read-out and setting: then B5, with “−”.

A further test concerns the target T2, HCV proteins (Hepatitis C virus genotype 1b, UniProt Q9WMX2).
T2 construct: expressed in transfected cells
Kind of test: Validation by Y2H pairwise matrices.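 Also: yeast two-hybrid pairwise tests of interactions first found in Y2H screens of HCV bait proteins against human cDNA libraries.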 The class given is binding. As to conditions: validation of interaction with HCV protein NS3.
Procedure: A comprehensive interactome map between HCV and cellular proteins was generated by Y2H screens. Twenty seven constructs encoding full-length HCV mature proteins or discrete domains were cloned using a recombination-based cloning system (10) (FIG. 6). Four independent screens were performed with each HCV bait protein, probing two distinct human cDNA libraries (Supplementary Methods). […] Two validation methods were used to assess the confidence of the IMAP Y2H dataset.
Turning to B3, the Y2H matrices entry was “+”.
In the case of B4, the Y2H matrices entry is recorded as “+”.
Still for that read-out and setting: the same measure for B2: “+”; for B5: “+”.

A further test deals with HCV ORFs (Gal4-DB fusions).
Experiment: not given
The class given is binding, HCV genotype 1b, isolate con1. As to conditions: human protein listed by gene symbol; the value names the HCV protein it interacts with.
In the case of B3, the “Interaction with viral protein” value was “NS3”.
On the same count and under the same terms, the same measure for B4: “NS3”.
Same read-out and setting: then B1, with “NS5A”; and B2, with “NS3 and NS5A”; and B5, with “NS3”.

For another test, the target named is T3, HCV ORFs (Gal4-DB fusions) (Hepatitis C virus genotype 1b, UniProt Q9WMX2).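 Also: yeast two-hybrid screens using HCV genotype 1b proteins fused to Gal4-DB as baits against prey cDNA libraries from human spleen and foetal brain, IMAP1 via transformation and IMAP2 via mating.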
T3 construct: expressed in transfected cells; host or cells: Saccharomyces cerevisiae MAV203 (IMAP1) / AH109 (IMAP2)
Experiment: not given
As to conditions: HCV protein NS3 as bait; human protein as prey. The class given is binding, HCV genotype 1b, isolate con1.
Consider B3, for which the “IMAP Y2H IMAP1 (number of IST)” value came out at 2 and the “IMAP Y2H IMAP2 (number of IST)” value is 3.
For B4 the same measures were 2 and 1.
B2: the “IMAP Y2H IMAP1 (number of IST)” value turned out to be 10.
For B5, the “IMAP Y2H IMAP1 (number of IST)” value is given as 1 and the “IMAP Y2H IMAP2 (number of IST)” value is 2.

Staying with this test, now noted: HCV protein NS5A as bait; human protein as prey.
For the molecule B1, the “IMAP Y2H IMAP2 (number of IST)” value is 2.
For B2, the “IMAP Y2H IMAP2 (number of IST)” value is 2.

The values above are taken from patent US20110091994A1, “Methods for Screening Compounds for Treating and/or Preventing an Hepatitis C Virus Infection” (priority 2008, published 2011).
